The values that follow are results of earlier work, collected in patent publication US11124541B2, “Chimeric melanocortin ligands and methods of use thereof” (REGENTS OF THE UNIVERSITY OF MINNESOTA, priority 2016, dated 2021).

Holding throughout (parameters): expressed in transfected cells; host or cells: HEK293
The target in data set [1] is T1, mMC4R (Mus musculus, UniProt P56450). To be noted: AGRP intrinsic potency; cited from earlier work.
The target in a further data set is mMC1R (Mus musculus, UniProt Q01727). To be noted: literature value; read-out: reported agonist potency at the mMC1R; cited from earlier work.
The next data set concerns the target mMC5R (Mus musculus, UniProt P41149). To be noted: literature value; read-out: reported agonist potency at the mMC5R; cited from earlier work.
The next data set addresses mMC3R (Mus musculus, UniProt P33033). Particulars: literature value; read-out: reported agonist potency at the mMC3R; cited from earlier work.
The target in data set [2] is T1, mMC4R. To be noted: cited from earlier work.

No end group written: not given here.

T1 sequence (P56450 whole entry): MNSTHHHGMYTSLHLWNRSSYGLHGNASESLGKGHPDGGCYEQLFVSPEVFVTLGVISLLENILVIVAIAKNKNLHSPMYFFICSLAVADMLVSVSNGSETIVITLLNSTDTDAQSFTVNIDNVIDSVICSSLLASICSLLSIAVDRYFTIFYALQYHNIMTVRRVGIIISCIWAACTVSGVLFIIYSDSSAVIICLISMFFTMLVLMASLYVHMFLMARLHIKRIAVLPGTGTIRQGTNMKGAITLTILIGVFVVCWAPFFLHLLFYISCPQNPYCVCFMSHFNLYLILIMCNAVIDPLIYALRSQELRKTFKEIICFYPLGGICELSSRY
mMC1R, sequence (Q01727 whole entry): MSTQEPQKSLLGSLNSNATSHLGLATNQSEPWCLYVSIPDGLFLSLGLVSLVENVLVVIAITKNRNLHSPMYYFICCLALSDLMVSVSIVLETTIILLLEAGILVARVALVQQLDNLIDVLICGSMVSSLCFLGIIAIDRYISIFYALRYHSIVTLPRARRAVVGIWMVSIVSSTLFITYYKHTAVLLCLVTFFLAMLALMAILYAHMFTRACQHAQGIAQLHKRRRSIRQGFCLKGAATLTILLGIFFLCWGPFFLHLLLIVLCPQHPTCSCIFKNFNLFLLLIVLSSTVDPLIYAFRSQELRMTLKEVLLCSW
mMC3R, sequence (P33033 whole entry): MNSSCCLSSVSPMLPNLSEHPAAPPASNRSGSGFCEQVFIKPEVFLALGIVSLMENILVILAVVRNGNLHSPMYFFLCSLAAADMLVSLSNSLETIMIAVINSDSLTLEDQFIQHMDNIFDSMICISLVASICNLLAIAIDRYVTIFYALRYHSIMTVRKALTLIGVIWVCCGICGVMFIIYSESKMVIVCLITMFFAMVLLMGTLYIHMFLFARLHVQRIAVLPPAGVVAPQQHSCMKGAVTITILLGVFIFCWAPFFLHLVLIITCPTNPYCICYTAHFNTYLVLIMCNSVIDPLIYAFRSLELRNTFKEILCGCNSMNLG
mMC5R, sequence (P41149 whole entry): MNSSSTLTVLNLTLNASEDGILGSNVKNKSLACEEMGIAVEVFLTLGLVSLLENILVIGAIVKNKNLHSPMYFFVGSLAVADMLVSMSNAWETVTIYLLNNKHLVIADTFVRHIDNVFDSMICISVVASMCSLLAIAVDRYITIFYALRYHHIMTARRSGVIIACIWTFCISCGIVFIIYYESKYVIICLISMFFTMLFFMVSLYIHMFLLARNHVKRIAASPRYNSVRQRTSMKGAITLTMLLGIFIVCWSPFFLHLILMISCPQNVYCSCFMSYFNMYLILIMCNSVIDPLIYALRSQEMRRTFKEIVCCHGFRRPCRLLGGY

Turning to “AGRP: agouti-related protein, naturally occurring melanocortin antagonist (SSRRCVRLHESCLGQQVPCCDPCATCYCRFFNAFCYCRKLGTAMNPCSRT; ends and bridges not checked; cysteine pairing not given here; UniProt O00253 83-132, looked up)”, the “lower potency at the mMC3R versus the mMC4R” value with mMC4R [1] was approximately 10 fold.
Turning to “Tyr-c[Cys-His-DPhe-Arg-Trp-Asn-Ala-Phe-Cys]-Tyr-NH2 (FRWNAFC; not fully specified; Tyr-Cys-His, disulfide, Tyr-NH2; printed: Phe-Arg-Trp-Asn-Ala-Phe-Cys) [previously reported disulfide bridged AGRP/NDP-MSH chimeric ligand]”, the EC50 with mMC1R is 0.35 nM; in the data set with mMC5R, 2 nM; in the data set with mMC3R, 2 nM; with mMC4R [2] (literature value, read-out: reported agonist potency at the mMC4R), 0.3 nM. Besides, the “reported selectivity for the mMC4R over the mMC3R” value with mMC4R [2] (literature chimeric ligands) is listed as 7 fold.
